Literature values in PMC4041429.

Target: β clamp (Escherichia coli) (UniProt P0A988)

- Kd: < 50 nM
Substance: β clamp (from UniProt P0A988)
